From paper PMC12098658, “JMY powers dendritogenesis and is regulated by CaM revealing a general, critical principle in neuromorphogenesis” (Communications Biology, 2025)

Tests used:
Details in all cases: both partners purified
untagged recombinant CaM = target: T1, untagged recombinant CaM (UniProt P0DP23 1-149); test: pull-down; in vitro reconstitution: GST-JMY WH2#1 immobilised, untagged CaM and rabbit skeletal muscle α-actin together; 10 mM HEPES pH 7.4, 250 mM NaCl, 0.1 mM MgCl2, 1% Triton X-100, with 1 mM EGTA or 20 µM Ca2+; quantitative fluorescence immunoblot
T1 construct: calmodulin (CaM), subcloned from Mito-mCherry-CaM into pGEX-6P; A few vector residues probably remain after PreScission cleavage; also called calmodulin; source: E. coli BL21, purified as GST-CaM (pGEX-6P), GST removed with PreScission Protease

[1] = target: rabbit skeletal muscle actin (rabbit, UniProt P68135 1-377); test: as above
Sepharose 4B-coupled CaM = target: T2, Sepharose 4B-coupled CaM (UniProt P0DP23 1-149, coupled to Sepharose 4B); test: pull-down; purified GST-JMY WH2#1 or GST with immobilised CaM; IP buffer with 150 mM NaCl and 2 µM Ca2+ (1 mM EGTA for comparison); immunoblot
T2 construct: calmodulin (CaM), bought coupled to Sepharose 4B; also called immobilized CaM; CaM matrix; source: bought: GE Healthcare (coupled to Sepharose 4B)

binding result (untagged recombinant CaM): binds
binding result [1]: binds
binding result (Sepharose 4B-coupled CaM): binds
B1: GST-JMY WH2#1 (domain or fragment)
chain: GNERSIPKSASAPAAHLFDSSQLVSARKKLRKTVEGLQRRRVS
notes: Mus musculus JMY, NP_067285.2, residues 841-883 (subcloned from GFP-JMY WH2#1 into pGEX-4T1); pGEX-4T1 by surmise puts GST at the N-terminus; also called first WH2 domain of JMY and flanking regions; source: E. coli BL21, purified (glutathione sepharose)
